Reference: patent publication US8088412B2, “Intralymphatic chemotherapy drug carriers” (priority 2008, dated 2012)
Entries after “also recorded” stand apart in the source; their conditions may differ. Like-named read-outs stand apart in the source and are kept apart here.

Tests used:
[1] = test system: MDA-MB-468LN human breast cancer cells; experiment: Tumor response, breast lymphatic tumor xenograft; assay type: in vivo, Nude nu/nu mice
Protocol: Nude nu/nu mice were implanted with 1×10^6 cells (MDA-MB-468LN human breast cancer cells) into the mammary fatpad, after approximately 4 weeks a 100-200 mm^3 tumor had developed in the axillary lymph node package. Animals were randomly divided into four treatment groups of five animals each: intravenous saline, s.q. HA, intravenous cisplatin, or s.q. HA-cisplatin. At this point, doses were administered to the animals. In the HA-cisplatin and the HA groups, HA-cisplatin (3.3 mg/kg based on Pt-content) or HA (3.3 mg/kg) was dissolved in 100 mcL saline was injected subcutaneously peritumorally. […] In all study groups, a second dose was administered after 1 week. Tumor volumes were measured weekly using calipers and the formula: Volume=0.52×(width^2*length). Animals were euthanized when the tumor volume exceeded […] or the body score index fell below 2.

[2] = Long-term toxicology: pathological examination (H&E) at 30 days; assay type: in vivo, Sprague-Dawley rats; settings: for lymphoid tissue histology (H&E) / underlying tissue at injection site: 30 days post injection; for brain tissue histology (H&E) / kidney tissue histology (H&E) / liver tissue histology (H&E): 30 days post single injection
Protocol: Each animal was administered a single bolus dose at the beginning of the 30-day study period. […] In order to reduce the stress to animals, subjects were housed in metabolic cages for 12 hrs to collect approximately 5 ml of urine and then returned to cages with bedding until the next collection period. Urine samples were centrifuged at 17,000×g for 5 mins and stored in −80° C. freezer until creatinine analysis.
The animals were euthanized at the end of the study (30 days) and the liver, bilateral kidneys, spleen, lungs, heart, right (ipsilateral) and left (contralateral) axillary nodes, and brain were excised intact and stored in 80% alcoholic formalin solution overnight for fixation before slide mounting. Mounting using haematoxylin & eosin (H&E) staining were conducted by Veterinary Lab Resources (Kansas City, Kans.). The pathological examination was performed by a blinded board-certified veterinarian pathologist (University of Kansas Medical Center, Kansas City, Kans.).

MDA-MB-468LN = experiment: Cell proliferation over 72 hrs, resazurin blue; assay type: cell-based, human
Protocol: Preceding proliferation studies, cells were trypsinized and seeded into 96-well plates (5,000 cells/well). […] After 4 hrs, well fluorescence was measured (λex 560 nm, λem 590 nm) using a fluorophotometer (SpectraMax Gemini; Molecular Devices, Sunnyvale, Calif.). IC50 was determined as the midpoint between saline (positive) and cell-free (negative) controls for each plate.

MDA-1986 cells = experiment: In vivo efficacy of HA-cisplatin, orthotopic HNSCC model; parameters: species or system Nu/Nu female athymic nude mice; settings: subcutaneous, weekly dose of 3.3 mg/kg for 3 weeks; 5 mice
Excerpt: The in vivo efficacy of HA-cisplatin was studied. All treatment began once animal HNSCC tumors reached 100 mm3 volume. Treatment commenced for 3 weeks. All animals were given 5×10^5 MDA-1986 cells in the buccal mucosa of the left cheek (which is a novel orthotopic HNSCC model I developed this year) and tumors develop in 2-3 weeks.

MDA-1986 = experiment: MTS cell viability assay, 72 hours; assay type: cell-based, human; settings: 10 nM to 100 micromolar
Protocol: (§1) To evaluate the anticancer, specifically antiproliferative, effects of HA-cisplatin compared to standard CDDP in vitro in two human head and neck squamous cell carcinoma cell lines (JMAR and MDA-1986) a standard MTS assay was performed as per the manufacturer's specified protocol.
(§2) Once 75% confluent, cells were trypsinized (0.25% trypsin), counted and plated in 96-well microtiter plates (Costar, Cambridge, Mass., USA) (1×10^3 cells/well) in 100 μL of growth media. After an overnight attachment period, cells were exposed to varying concentration of […] for 3 days. All studies were performed in triplicate and repeated at least three times independently. After the 3-d treatment period, the number of viable cells was determined using a colorimetric Cell Proliferation assay (CellTiter96 Aqueous Nonradioactive Cell Proliferation assay; Promega, Madison Wis., USA), which measures the bioreduction of the MTS (3-[4,5-dimethylthiazol-2yl]-5-[3-carboxymethoxyphenyl]-2-[4-sulfophenyl]-2H tetrazolium) by dehydrogenase enzymes of metabolically active cells into soluble formazon product, in the presence of the electron coupling reagent PMS (phenazine methosulfate). To perform the assay, 20 μL of combined MTS/PMS solution containing 2 mg/mL MTS and 150 μM PMS in buffer (0.2 g/L KCl, 8.0 g/L NaCl, 0.2 g/L KH2PO4, 1.15 g/L, […] CaCl2-2H2O, […], MgCl2.6H2O, pH 7.35) was added to each well and then after 3 hr of incubation at 37° C. in a humidified 5% CO2 atmosphere, absorbance was measured at 490 nm in microplate reader. Triplicate wells with predetermined cell numbers were subjected to the above assay in parallel with the test samples to normalize the absorbance readings; this also provided internal confirmation that the assay was linear over the range of absorbance and cell numbers measured. Data was plotted as a function of % viability from controls (cell viability) vs. drug concentration (x-axis).

JMAR = experiment: MTS cell viability assay, 72 hours; assay type: cell-based, human; settings: 10 nM to 100 micromolar
Protocol: as §1, §2

[PtCl(H2O)(NH3)2]OOCO-HA [HA-cisplatin]
tumor growth delay compared to negative control group ([1]; 3.3 mg/kg (Pt) subcutaneously peritumorally, second dose after 1 week): 5 weeks
toxicity in treated tumor-bearing animals ([1]; 3.3 mg/kg subcutaneously peritumorally, two doses): no toxicity was observed
lymphoid tissue histology (H&E) ([2]; 1 mg/kg subcutaneous): normal findings
underlying tissue at injection site ([2]; 1 mg/kg subcutaneous): normal findings
brain tissue histology (H&E) ([2]; 1 mg/kg subcutaneous): normal findings
kidney tissue histology (H&E) ([2]; 1.0 mg/kg subcutaneous): normal appearance except for minimal renal tubular cell swelling and degeneration
liver tissue histology (H&E) ([2]; 1.0 mg/kg subcutaneous): Very mild changes; also recorded: normal appearance
lymphoid tissue histology (H&E) ([2]; 3.3 mg/kg subcutaneous): Very mild changes; also recorded: normal findings
underlying tissue at injection site ([2]; 3.3 mg/kg subcutaneous): normal findings
brain tissue histology (H&E) ([2]; 3.3 mg/kg subcutaneous): normal findings
kidney tissue histology (H&E) ([2]; 3.3 mg/kg subcutaneous): fairly normal appearance except for minor foci of tubular cell necrosis at the corticomedullary junction
liver tissue histology (H&E) ([2]; 3.3 mg/kg subcutaneous): Mild degeneration with some sinusoidal necroses; also recorded: fairly normal appearance except for very mild degeneration
animals diagnosed with mild renal necrosis ([2]; high dose (3.3 mg/kg) subcutaneous, 30 days, of 5): 20%
animals with renal necrosis ([2]; low dose (1.0 mg/kg) subcutaneous, 30 days): none
IC50 (MDA-MB-468LN; HA carriers on a Pt-basis equivalent to cisplatin): 10 µg/mL
IC50 (MDA-MB-468LN; Pt-basis, read-out: IC50): 33 µM
response to therapy (MDA-1986 cells): 2 animals had a complete response to therapy and the third (HA-cis 1) had a partial response to therapy
tumor growth delay (MDA-1986 cells): delayed tumor growth in all 5 animals
IC50 level compared with CDDP (MDA-1986): no significant difference
IC50 level compared with CDDP (MDA-1986; listed as HA-Cisplatin): very similar
IC50 level compared with CDDP (JMAR): no significant difference
IC50 level compared with CDDP (JMAR; listed as HA-Cisplatin): very similar
